From US20240245796A1 (PROFOUNDBIO US, published 2024)

Assays:
[1] = biological target: T1, human FOLR1 extracellular domain linked to His tag (human, UniProt P15328 25-233, limits assumed); test: BLI, global 1:1 fit (250 nM row)
T1 construct: extracellular domain; It may be the same product as m13; also called Hu-FRα; Hu-Ag; not shown: His tag

[2] = biological target: T2, human FOLR2 extracellular domain linked to His tag (human, UniProt P14207 17-230, limits assumed); test: BLI, global 1:1 fit (250 nM row)
T2 construct: extracellular domain; Antigen in solution in BLI; also called Hu-FRb; not shown: His tag

[3] = biological target: T3, mouse FOLR1 extracellular domain linked to His tag (mouse, UniProt P35846 25-232, limits assumed); test: BLI, global 1:1 fit (500 nM row); only the 500 nM response quantifiable
T3 construct: extracellular domain; Antigen in solution in BLI; also called Mouse-Ag; not shown: His tag

[4] = biological target: T4, rat FOLR1 extracellular domain linked to His tag (rat); test: BLI, global 1:1 fit (62.5 nM row); all responses below quantification
T4 construct: extracellular domain; Antigen in solution in BLI; also called Rat-Ag

[5] = biological target: T1, human FOLR1 extracellular domain linked …; test: BLI, Ag 250 nM over Ab on anti-hIgG Fc tip
[6] = biological target: T5, cynomolgus monkey FOLR1 extracellular domain linked to His tag (cynomolgus monkey, UniProt A0A2K5U044 25-233); test: BLI, Ag 250 nM over Ab on anti-hIgG Fc tip
T5 construct: extracellular domain; Antigen in solution in BLI; It may be the same product as m14; also called Cyno-Ag; not shown: His tag

[7] = biological target: T6, human FOLR3 extracellular domain linked to His tag (human, UniProt P41439 23-245, limits assumed); test: BLI, global 1:1 fit (7.82 nM row); all responses below quantification
T6 construct: extracellular domain; Antigen in solution in BLI; also called Hu-FRg; not shown: His tag

[8] = biological target: T1, human FOLR1 extracellular domain linked …; test: BLI, Ag 31.3 nM over Ab on anti-hIgG Fc tip
[9] = biological target: T5, cynomolgus monkey FOLR1 extracellular …; test: BLI, Ag 31.3 nM over Ab on anti-hIgG Fc tip
[10] = biological target: T4, rat FOLR1 extracellular domain linked …; test: BLI, global 1:1 fit (7.82 nM row); all responses below quantification
[11] = biological target: T1, human FOLR1 extracellular domain linked …; test: BLI, global 1:1 fit (15.6 nM row)
[12] = biological target: T2, human FOLR2 extracellular domain linked …; test: BLI, global 1:1 fit (15.6 nM row)
[13] = biological target: T3, mouse FOLR1 extracellular domain linked …; test: BLI, global 1:1 fit (250 nM row); only the 500 nM response quantifiable
[14] = biological target: T1, human FOLR1 extracellular domain linked …; test: BLI, global 1:1 fit (31.3 nM row)
[15] = biological target: T2, human FOLR2 extracellular domain linked …; test: BLI, global 1:1 fit (31.3 nM row)
[16] = biological target: T1, human FOLR1 extracellular domain linked …; test: BLI, Ag 7.82 nM over Ab on anti-hIgG Fc tip
[17] = biological target: T5, cynomolgus monkey FOLR1 extracellular …; test: BLI, Ag 7.82 nM over Ab on anti-hIgG Fc tip
[18] = biological target: T1, human FOLR1 extracellular domain linked …; test: BLI, Ag 125 nM over Ab on anti-hIgG Fc tip
[19] = biological target: T2, human FOLR2 extracellular domain linked …; test: BLI, Ag 125 nM over Ab on anti-hIgG Fc tip
[20] = biological target: T1, human FOLR1 extracellular domain linked …; test: BLI, global 1:1 fit (125 nM row)
[21] = biological target: T5, cynomolgus monkey FOLR1 extracellular …; test: BLI, global 1:1 fit (125 nM row)
[22] = biological target: T6, human FOLR3 extracellular domain linked …; test: BLI, global 1:1 fit (125 nM row); all responses below quantification
[23] = biological target: T6, human FOLR3 extracellular domain linked …; test: BLI, global 1:1 fit (250 nM row); all responses below quantification

T5 sequence (A0A2K5U044 entry or part of it): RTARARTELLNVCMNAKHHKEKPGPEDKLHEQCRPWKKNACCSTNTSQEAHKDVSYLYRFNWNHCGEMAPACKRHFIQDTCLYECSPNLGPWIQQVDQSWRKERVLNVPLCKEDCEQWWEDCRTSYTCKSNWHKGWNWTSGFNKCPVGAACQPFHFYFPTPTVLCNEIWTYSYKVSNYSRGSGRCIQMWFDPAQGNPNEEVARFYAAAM
T3 sequence (P35846 25-232 limits assumed): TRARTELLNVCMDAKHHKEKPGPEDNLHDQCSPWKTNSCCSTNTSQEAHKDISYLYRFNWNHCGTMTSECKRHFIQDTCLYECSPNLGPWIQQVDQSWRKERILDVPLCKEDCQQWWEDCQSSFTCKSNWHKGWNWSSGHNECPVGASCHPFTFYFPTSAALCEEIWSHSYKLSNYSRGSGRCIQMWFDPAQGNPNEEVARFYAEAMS
T6 sequence (P41439 23-245 limits assumed): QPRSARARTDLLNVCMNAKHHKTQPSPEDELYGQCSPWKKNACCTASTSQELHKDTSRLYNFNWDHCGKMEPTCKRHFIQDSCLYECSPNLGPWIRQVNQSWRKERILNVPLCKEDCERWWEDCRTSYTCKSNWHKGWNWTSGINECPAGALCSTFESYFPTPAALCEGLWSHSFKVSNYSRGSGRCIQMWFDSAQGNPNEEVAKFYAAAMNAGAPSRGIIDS
T2 sequence (P14207 17-230 limits assumed): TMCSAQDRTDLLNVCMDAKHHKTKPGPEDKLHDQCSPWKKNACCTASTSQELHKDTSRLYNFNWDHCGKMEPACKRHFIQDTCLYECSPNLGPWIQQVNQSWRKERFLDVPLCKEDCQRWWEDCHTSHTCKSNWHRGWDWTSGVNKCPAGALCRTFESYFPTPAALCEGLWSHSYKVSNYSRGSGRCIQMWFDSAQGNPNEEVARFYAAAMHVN
T1 sequence (P15328 25-233 limits assumed): as the sequence (A0A2K5U044 entry or part of it) above, with T2I, R4W, K37R, P146A, Y171H counted along it

B1: F131 (antibody, V domains shown)
VH: EVQLLESGGGVVQPGRSLRLSCAASGFTFSSYGMHWVRQAPGKGLEWVAVISYDGSNKYYADSVKGRFTISRANSKNTLYLQMNSLRAEDTAVYYCARPRAYYGAYGSSFDYWGQGTQVTVSS
VL: EIVMTQSPSSVSASVGDRVAITCRASQGISSWLAWYQQKPGKAPKLLIYAASSLQSGVPSRFSGSGSGTDFTLTISSLQPEDFATYYCQQSYSTPLTFGGGTKVDIK
notes: also called clone F131; F131 mAb
- Kd [1]: 5.3 nM
- koff [1]: 0.0012 s⁻¹
- kon [1]: 226000 M⁻¹ s⁻¹
- Kd [2]: 142 nM
- koff [2]: 0.0784 s⁻¹
- kon [2]: 552000 M⁻¹ s⁻¹
- koff [3]: 0.301 s⁻¹
- kon [3]: 102000 M⁻¹ s⁻¹
- koff [4]: 1.03 s⁻¹
- kon [4]: 5490 M⁻¹ s⁻¹
- Response [5]: 0.162
- Response [6]: 0.209
- koff [7]: 0.217 s⁻¹
- kon [7]: 1660 M⁻¹ s⁻¹
- Response [8]: 0.0869
- Response [9]: 0.084
- koff [10]: 1.03 s⁻¹
- kon [10]: 5490 M⁻¹ s⁻¹
- Kd [11]: 5.3 nM
- koff [11]: 0.0012 s⁻¹
- kon [11]: 226000 M⁻¹ s⁻¹
- Kd [12]: 142 nM
- koff [12]: 0.0784 s⁻¹
- kon [12]: 552000 M⁻¹ s⁻¹
- Kd [13]: 2960 nM
- koff [13]: 0.301 s⁻¹
- kon [13]: 102000 M⁻¹ s⁻¹
- Kd [14]: 5.3 nM
- koff [14]: 0.0012 s⁻¹
- kon [14]: 226000 M⁻¹ s⁻¹
- Kd [15]: 142 nM
- koff [15]: 0.0784 s⁻¹
- kon [15]: 552000 M⁻¹ s⁻¹
- Response [16]: 0.04
- Response [17]: 0.0537
- Response [18]: 0.144
- Response [19]: 0.0188
- Kd [20]: 1.53 nM
- koff [20]: 0.000338 s⁻¹
- kon [20]: 221000 M⁻¹ s⁻¹
- Kd [21]: 8.15 nM
- koff [21]: 0.00157 s⁻¹
- kon [21]: 193000 M⁻¹ s⁻¹
- koff [22]: 0.217 s⁻¹
- kon [22]: 1660 M⁻¹ s⁻¹
- koff [23]: 0.217 s⁻¹
- kon [23]: 1660 M⁻¹ s⁻¹

B2: F131-LD038 (antibody, V domains shown)
VH: EVQLLESGGGVVQPGRSLRLSCAASGFTFSSYGMHWVRQAPGKGLEWVAVISYDGSNKYYADSVKGRFTISRANSKNTLYLQMNSLRAEDTAVYYCARPRAYYGAYGSSFDYWGQGTQVTVSS
VL: EIVMTQSPSSVSASVGDRVAITCRASQGISSWLAWYQQKPGKAPKLLIYAASSLQSGVPSRFSGSGSGTDFTLTISSLQPEDFATYYCQQSYSTPLTFGGGTKVDIK
modifications: drug-linker LD038 (PB038, maleimide-PEG unit-Val-Cit-PAB-exatecan) on cysteines freed by TCEP reduction; positions not given
notes: Antibody-drug conjugate of F131 (IgG1) with LD038; also called anti-huFOLR-1 conjugate F131-LD038; F131-038
- Kd [1]: 4.79 nM
- koff [1]: 0.00121 s⁻¹
- kon [1]: 252000 M⁻¹ s⁻¹
- Kd [2]: 84.4 nM
- koff [2]: 0.0813 s⁻¹
- kon [2]: 963000 M⁻¹ s⁻¹
- Kd [3]: 2870 nM
- koff [3]: 0.266 s⁻¹
- kon [3]: 92600 M⁻¹ s⁻¹
- koff [4]: 0.224 s⁻¹
- kon [4]: 2.64e+06 M⁻¹ s⁻¹
- Response [5]: 0.184
- Response [6]: 0.18
- koff [7]: 0.233 s⁻¹
- Response [8]: 0.0866
- Response [9]: 0.0702
- koff [10]: 0.224 s⁻¹
- kon [10]: 2.64e+06 M⁻¹ s⁻¹
- Kd [11]: 4.79 nM
- koff [11]: 0.00121 s⁻¹
- kon [11]: 252000 M⁻¹ s⁻¹
- Kd [12]: 84.4 nM
- koff [12]: 0.0813 s⁻¹
- kon [12]: 963000 M⁻¹ s⁻¹
- Kd [13]: 2870 nM
- koff [13]: 0.266 s⁻¹
- kon [13]: 92600 M⁻¹ s⁻¹
- Kd [14]: 4.79 nM
- koff [14]: 0.00121 s⁻¹
- kon [14]: 252000 M⁻¹ s⁻¹
- Kd [15]: 84.4 nM
- koff [15]: 0.0813 s⁻¹
- kon [15]: 963000 M⁻¹ s⁻¹
- Response [16]: 0.0342
- Response [17]: 0.0225
- Response [18]: 0.176
- Response [19]: 0.0161
- Kd [20]: 4.8 nM
- koff [20]: 0.00107 s⁻¹
- kon [20]: 224000 M⁻¹ s⁻¹
- Kd [21]: 8.82 nM
- koff [21]: 0.0016 s⁻¹
- kon [21]: 181000 M⁻¹ s⁻¹
- koff [22]: 0.233 s⁻¹
- koff [23]: 0.233 s⁻¹
